Data on two molecules can be found in paper PMC11931385, “Structural and functional analysis of cancer-associated missense variants in the retinoblastoma protein pocket domain” (The Journal of Biological Chemistry, 2025).

Residue numbers refer to the chain shown, from its start. Names and notes keep the numbering of the source. No end group written: not given here. TMR = tetramethyl rhodamine dye

Test in all cases: fluorescence polarisation; 25 °C; unlabeled Rb^P titrated against 1.5 nM TMR-E2F1^TD or 7.5 nM TMR-E7^LxCxE; 25 mM Tris pH 8.0, 200 mM NaCl, 1 mM DTT, 0.1% Tween-20; 2 min incubation; quadratic fit; apparent Kd for the variants, Kd for WT
Settings in all cases: both partners purified
Background: Polarisation of emitted light reports the rotation of a fluorescent probe.

One assay has as its target T1, Rb^P R621C (human, UniProt P06400 380-788, R621C).
T1 construct: also called variant 41
T1 sequence (looked up): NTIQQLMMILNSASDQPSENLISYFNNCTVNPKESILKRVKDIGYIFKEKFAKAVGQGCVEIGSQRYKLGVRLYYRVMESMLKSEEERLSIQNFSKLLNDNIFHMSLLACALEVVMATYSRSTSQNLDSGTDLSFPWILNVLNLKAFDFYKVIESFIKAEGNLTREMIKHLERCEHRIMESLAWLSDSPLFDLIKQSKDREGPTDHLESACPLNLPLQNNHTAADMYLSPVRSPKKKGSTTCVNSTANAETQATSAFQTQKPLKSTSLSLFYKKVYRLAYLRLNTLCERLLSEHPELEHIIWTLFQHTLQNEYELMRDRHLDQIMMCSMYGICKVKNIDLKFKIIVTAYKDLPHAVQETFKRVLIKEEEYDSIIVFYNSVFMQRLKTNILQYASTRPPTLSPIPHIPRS

The target of another assay is T2, Rb^P S443L (human, UniProt P06400 380-788, S443L).
T2 construct: also called variant 2
T2 sequence (looked up): T1 sequence (looked up) with S64L, C242R

The next assay concerns the target T3, Rb^P E554K (human, UniProt P06400 380-788, E554K).
T3 construct: also called variant 28
T3 sequence (looked up): T1 sequence (looked up) with E175K, C242R

In another assay the target is T4, Rb^P D584Y (human, UniProt P06400 380-788, D584Y).
T4 construct: also called variant 32
T4 sequence (looked up): T1 sequence (looked up) with D205Y, C242R

The target of the next assay is T5, Rb^P H673P (human, UniProt P06400 380-788, H673P).
T5 construct: also called variant 54
T5 sequence (looked up): T1 sequence (looked up) with C242R, H294P

B1: TMR-E2F1^TD, peptide of the E2F1 transactivation domain (peptide)
peptide: {TMR}-GEGIRDLFDCDFGDLTPLD
notes: also called E2F^TD; source: synthetic peptide, bought: GenScript
As to B1, the Kd with Rb^P R621C is 22 nM; with Rb^P S443L, 31 nM; with Rb^P E554K it was 1170 nM; in the assay with Rb^P D584Y it was 33 nM; with Rb^P H673P, 42 nM.

B2: TMR-E7^LxCxE, LxCxE peptide of the E7 oncoprotein from HPV (peptide)
peptide: DLYCYEQLN
modifications: also: TMR label, position not given here
notes: source: synthetic peptide, bought: GenScript
In the case of B2, the Kd with Rb^P R621C came out at 12 nM; with Rb^P S443L, 9 nM; with Rb^P E554K, 12 nM; with Rb^P D584Y, 12 nM; in the assay with Rb^P H673P, 24 nM.
